Experimental data as given in patent US20230088052A1.
Like-named read-outs stand apart in the source and are kept apart here.

How the values were obtained:
[1] = target: his-tagged human IL-4R recombinant protein (h-IL-4R-his) (human) (UniProt P24394); experiment: Biacore SPR: antibody captured, IL-4R antigen in flow, 1:1 model
[2] = target: humanized Fc-tagged human IL-4R recombinant protein (h-IL-4R-Fc) (human) (UniProt P24394); experiment: blocking ELISA of human IL-4/IL-4R
[3] = target: his-tagged human IL-4R recombinant protein (h-IL-4R-his) (human) (UniProt P24394); experiment: binding ELISA, human IL-4R-his coated
[4] = target: his-tagged human IL-4R recombinant protein (h-IL-4R-his) (human) (UniProt P24394); experiment: binding ELISA, human IL-4R-his coated; remark: listed apart in the source
[5] = target: humanized Fc-tagged human IL-4R recombinant protein (h-IL-4R-Fc) (human) (UniProt P24394); experiment: blocking ELISA: human IL-4R-Fc coated, antibody blocks the binding of IL-4
[6] = target: humanized Fc-tagged human IL-4R recombinant protein (h-IL-4R-Fc) (human) (UniProt P24394); experiment: as above; remark: listed apart in the source
[7] = target: his-tagged human IL-4R recombinant protein (h-IL-4R-his) (human) (UniProt P24394); experiment: binding ELISA, human IL-4R-his coated; remark: listed apart in the source

Chain of Dupilumab (antibody) (VH): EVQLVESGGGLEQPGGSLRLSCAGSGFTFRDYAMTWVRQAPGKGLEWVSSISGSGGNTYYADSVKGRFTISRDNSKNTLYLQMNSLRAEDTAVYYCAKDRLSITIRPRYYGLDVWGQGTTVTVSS
Chain of Dupilumab (antibody) (VL): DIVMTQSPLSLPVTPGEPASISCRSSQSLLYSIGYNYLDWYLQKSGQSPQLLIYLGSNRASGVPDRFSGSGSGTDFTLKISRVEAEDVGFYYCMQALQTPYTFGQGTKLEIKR

## Dupilumab (antibody)
[1]
  Kd: 0.126 nM
[2]
  IC50: 0.156 µg/mL
[3]
  EC50: 0.0426 µg/mL
[4]
  EC50: 0.0276 µg/mL
[5]
  IC50: 0.209 µg/mL
[6]
  IC50: 0.0521 µg/mL
[7]
  EC50: 0.0558 µg/mL
